Holding throughout (assay): SPR
In general terms: Surface plasmon resonance follows binding to a sensor surface in real time, without labels.

One experiment deals with T1, CA018 gp140/420 (A/G) (HIV-1).
T1 construct: also called gp120 of CA18

For experiment [1], the target named is T2, gp140UG37 (subtype A), gp140 envelope glycoprotein from the HIV-1 group M A-clade isolate 92UG037 (HIV-1).
T2 construct: also called UG037 gp140/420 (A); gp140-UG037

Experiment [2] concerns the target T3, gp120IIIB (subgroup B) (HIV-1, UniProt P04578 33-511).
T3 construct: it is not tied to this reagent; also called IIIB gp120 (B)

The target of experiment [3] is gp120IIIB (subgroup B) (HIV-1, UniProt P04578 33-511).
For experiment [4], the target named is T4, gp140CN54 (subtype B'/C), gp140 envelope glycoprotein from the HIV-1 group M CRF07-B/C-clade isolate 97CN54 (HIV-1).
T4 construct: also called CN54 gp140/420 (C); CN54 gp140 Env

Data on 8 molecules can be found in patent publication US20150158934A1 (UCL BUSINESS, published 2015).

Changes are numbered by the printed parent chain.

The Kd is the free concentration of one partner at which half of the binding sites on the other are occupied at equilibrium, for simple one-to-one binding. The low end stands for tighter binding, the high end for weaker binding. In general, koff refers to a measure of how fast the partners let go of each other. A word on the kon: it is the rate constant with which the complex forms. A lower kon goes with slow association.

B1: L82B4F (VHH)
VHH: EVQLVESGGGLVQAGGSLRLSCAASGFTSDDYAIGWFRRAPGKEREGVSYISIEDGSTYSADSVKGRFTISSDYAKNTVYLQMNGLKPEDTAVYYCAAAILGDSVRWLQEYDYDYWGQGTQVTVSS
notes: Family member of L81H9; tags not written into the chain
For the molecule B1, the figures for the Kd (in the experiment with CA018 gp140/420 (A/G); in experiment [1]; in the experiment with gp120IIIB (subgroup B) [2]) were 3500 nM, 0.0031 nM and 0.0315 nM, respectively. Besides, the koff worked out at 0.00298 s⁻¹ with CA018 gp140/420 (A/G), 3.25e-08 s⁻¹ in experiment [1] and 0.000734 s⁻¹ with gp120IIIB (subgroup B) [2]. Besides, the kon with CA018 gp140/420 (A/G) was determined as 850 M⁻¹ s⁻¹; in experiment [1], 10500 M⁻¹ s⁻¹; with gp120IIIB (subgroup B) [2], 2.3e+07 M⁻¹ s⁻¹.

B2: mAb 2G12 (antibody, V domains shown)
VH: EVQLVESGGGLVKAGGSLILSCGVSNFRISAHTMNWVRRVPGGGLEWVASISTSSTYRDYADAVKGRFTVSRDDLEDFVYLQMHKMRVEDTAIYYCARKGSDRLSDNDPFDAWGPGTVVTVSP
VL: DVVMTQSPSTLSASVGDTITITCRASQSIETWLAWYQQKPGKAPKLLIYKASTLKTGVPSRFSGSGSGTEFTLTISGLQFDDFATYHCQHYAGYSATFGQGTRVEIKR
Turning to B2, in the experiment with gp120IIIB (subgroup B) [3], binding was characterised by a dissociation constant (Kd) of 1.91 nM, the koff worked out at 0.000314 s⁻¹ and the kon is 165000 M⁻¹ s⁻¹.

B3: L8Cj3 (VHH)
VHH: EVQLVESGGGLVQAGGFLRLSCELRGSIFNQYAMAWFRQAPGKEREFVAGMGAVPHYGEFVKGRFTISRDNAKSTVYLQMSSLKPEDTAIYFCARSKSTYISYNSNGYDYWGRGTQVTVSS
notes: 207 chosen because J3r is said to carry S82aN against L8Cj3; also called L8CjJ3; L9Cj3
In the experiment with CA018 gp140/420 (A/G), B3 had a Kd of 8.86 nM, a koff of 3.98e-05 s⁻¹ and a kon of 4490 M⁻¹ s⁻¹. In experiment [1], this molecule displayed a Kd of 0.00702 nM, a koff of 5.48e-08 s⁻¹ and a kon of 7800 M⁻¹ s⁻¹.

B4: L92E7 (VHH)
VHH: EVQLVESGGGLVQPGGSLRLSCAASGNIVSIDAAGWFRQAPGKQREPVATILTGGATNYADSVKGRFTISRDNAKNTVYLQMSSLKPEDTAVYYCYAPMIYYGGRYSDYWGQGTQVTVSS
notes: Purified by IMAC; tags not written into the chain
On to B4, for which the Kd is 7 nM with CA018 gp140/420 (A/G), 11.2 nM in experiment [1], 4.46 nM in experiment [4] and 4.42 nM with gp120IIIB (subgroup B) [2]. The dissociation rate constant (koff) with CA018 gp140/420 (A/G) turned out to be 0.00013 s⁻¹; in experiment [1], 0.00025 s⁻¹; in experiment [4], 0.00015 s⁻¹; with gp120IIIB (subgroup B) [2] it was 0.00077 s⁻¹. In addition, the kon in the experiment with CA018 gp140/420 (A/G) came out at 18000 M⁻¹ s⁻¹; in experiment [1], 22200 M⁻¹ s⁻¹; in experiment [4], 33200 M⁻¹ s⁻¹; in the experiment with gp120IIIB (subgroup B) [2], 174000 M⁻¹ s⁻¹.

B5: L91F10 (VHH)
VHH: EVQLVESGGGLVQPGGSLTLSCVASGFTLDGYAIGWFRQAPGKEVESVSCITGRHGTIYYADSVMGRFTISRDNAKSTVYLQMNSLKPEDTAVYYCAADGFDTPCVAGTDWQYDYWGQGTQVTVSS
notes: as for B4
In the experiment with CA018 gp140/420 (A/G), B5 came in with a Kd of 1.18 nM, a koff of 6.94e-05 s⁻¹ and a kon of 58800 M⁻¹ s⁻¹. In addition, in experiment [1], the Kd turned out to be 3.98 nM, the koff worked out at 0.00012 s⁻¹ and the kon was 29300 M⁻¹ s⁻¹. In experiment [4], this molecule returned a Kd of 0.0771 nM, a koff of 7.12e-07 s⁻¹ and a kon of 9230 M⁻¹ s⁻¹.

B6: L91B5 (VHH)
VHH: EVQLVESGGGLVQPGGSLRLSCAASGATFDDYAIGWFRQAPGKEREGVSYIGCNDGATYYAGSVKGRFTISCDYAKNTVYLQMNSLKPEDTAVYYCAAAAQWATIRWIHEYDYNIWGQGTQVTVSS
notes: Purified by IMAC
Consider B6, for which the results for the Kd (with CA018 gp140/420 (A/G); in experiment [1]; in experiment [4]) were 15.6 nM, 0.174 nM and 0.00127 nM, respectively.

B7: L91H9 (VHH)
VHH: B6 VHH with P14A, A24V, A57S, N114D, I115T
notes: as for B4
With B7, the Kd in the experiment with CA018 gp140/420 (A/G) came out at 321 nM; in experiment [1], 0.0102 nM; in experiment [4], 0.0625 nM; with gp120IIIB (subgroup B) [2], 4.11 nM. Further, the koff was 0.428 s⁻¹ with CA018 gp140/420 (A/G), 9.81e-08 s⁻¹ in experiment [1], 1.1e-06 s⁻¹ in experiment [4] and 0.000711 s⁻¹ with gp120IIIB (subgroup B) [2]. The association rate constant (kon) in the experiment with CA018 gp140/420 (A/G) is 1.33e+06 M⁻¹ s⁻¹; in experiment [1], 9610 M⁻¹ s⁻¹; in experiment [4] it was 17600 M⁻¹ s⁻¹; with gp120IIIB (subgroup B) [2] it was 173000 M⁻¹ s⁻¹.

B8: L91C2 (VHH)
VHH: EVQLVESGGGLVQPGGSLRLSCAASGFTLDGYAIGWFRQAPGKEREAISCITTAGTIYYADSVKGRVTISRDNAKNTVYLQMNSLKPEDTAVYLCAADGFDTPCVAGTDWGYDYEGQGTQVTVSS
notes: as for B4
As to B8, in the experiment with gp120IIIB (subgroup B) [2], the affinity, expressed as Kd, was 2.01 nM; the koff is 0.00025 s⁻¹; the kon stood at 122000 M⁻¹ s⁻¹.
